Experimental findings from patent US6942981 are described below.

The target in assay [1] is T1, GST-MPP2 PDZ domain fusion protein.
T1 construct: also called maguk p55 subfamily member 2 (DLG2); MMP2; not shown: glutathione S-transferase (GST) encoded by pGEX-3X
T1 chain: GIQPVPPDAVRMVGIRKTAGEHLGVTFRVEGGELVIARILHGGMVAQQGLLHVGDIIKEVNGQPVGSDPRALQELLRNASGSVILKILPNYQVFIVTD
The assay can be described thus: A/G assays.

The target of assay [2] is T2, GST-NOS1 PDZ domain fusion protein (human, UniProt P29475 11-101).
T2 construct: also called human neuronal nitric oxide synthase; not shown: glutathione S-transferase (GST) encoded by pGEX-3X
T2 sequence (P29475 other isoform, or with tags, fused parts or gaps): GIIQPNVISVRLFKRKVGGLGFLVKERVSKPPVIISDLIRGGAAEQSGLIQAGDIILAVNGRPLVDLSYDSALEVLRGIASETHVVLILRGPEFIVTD
The assay can be described thus: A/G assays.

The target of assay [3] is T3, GST-prIL16 PDZ domains 1-2 fusion protein (Homo sapiens (Human), UniProt Q14005 1110-1325).
T3 construct: also called putative interleukin 16 precursor; not shown: glutathione S-transferase (GST) encoded by pGEX-3X
T3 sequence: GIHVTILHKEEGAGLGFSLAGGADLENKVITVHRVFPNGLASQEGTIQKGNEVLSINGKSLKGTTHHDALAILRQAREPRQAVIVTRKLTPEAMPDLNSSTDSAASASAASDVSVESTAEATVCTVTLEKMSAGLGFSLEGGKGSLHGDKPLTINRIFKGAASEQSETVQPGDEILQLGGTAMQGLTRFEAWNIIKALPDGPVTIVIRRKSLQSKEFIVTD
The assay can be described thus: A/G assays.

Assay [4] deals with T4, GST-41.8 kD (hypothetical 41.8 kD protein) PDZ domain fusion protein (Mus musculus (Mouse), UniProt Q9EQZ7 682-763).
T4 construct: not shown: glutathione S-transferase (GST) encoded by pGEX-3X
T4 sequence: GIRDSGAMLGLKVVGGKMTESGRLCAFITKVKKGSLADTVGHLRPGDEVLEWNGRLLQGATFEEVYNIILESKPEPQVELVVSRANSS
The assay can be described thus: A/G assays.

Assay [5] has as its target T5, GST-KIAA0316 PDZ domain fusion protein (Homo sapiens (Human), UniProt Q14CM0 72-159).
T5 construct: also called K316; not shown: glutathione S-transferase (GST) encoded by pGEX-3X
Kind of assay: A/G assays.

For assay [6], the target named is T6, GST-CBP (Cytohesin binding protein HE) PDZ domain fusion protein (Homo sapiens (Human), UniProt O60759 74-165).
T6 construct: not shown: glutathione S-transferase (GST) encoded by pGEX-3X
T6 sequence: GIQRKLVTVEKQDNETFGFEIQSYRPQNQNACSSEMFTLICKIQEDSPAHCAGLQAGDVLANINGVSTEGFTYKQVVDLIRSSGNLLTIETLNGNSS
Kind of assay: A/G assays.

Assay [7] addresses T7, GST-NeDLG PDZ domains 1-2 fusion protein (Mus musculus (Mouse), UniProt P70175 147-332).
T7 construct: also called NeDLG1; not shown: glutathione S-transferase (GST) encoded by pGEX-3X
T7 chain: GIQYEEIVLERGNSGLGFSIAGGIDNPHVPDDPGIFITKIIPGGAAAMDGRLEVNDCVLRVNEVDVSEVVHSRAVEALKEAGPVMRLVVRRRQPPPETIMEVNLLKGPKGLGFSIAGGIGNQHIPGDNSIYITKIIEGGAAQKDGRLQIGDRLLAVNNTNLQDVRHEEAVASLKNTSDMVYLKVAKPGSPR
Kind of assay: A/G assays.

The target in assay [8] is T8, GST-SYN1a (alpha1-syntrophin) PDZ domain fusion protein (Homo sapiens (Human), UniProt Q13424 84-179).
T8 construct: also called SYN 1 α; not shown: glutathione S-transferase (GST) encoded by pGEX-3X
T8 sequence: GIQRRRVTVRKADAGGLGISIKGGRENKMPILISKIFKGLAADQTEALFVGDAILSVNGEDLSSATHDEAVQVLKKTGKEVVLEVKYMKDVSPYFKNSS
Kind of assay: A/G assays.

The target of assay [9] is T9, GST-PSD95 PDZ domains 1-3 fusion protein (human, UniProt P31016 58-395 (rat entry)).
T9 construct: not shown: glutathione S-transferase (GST) encoded by pGEX-3X
T9 sequence (P31016 other isoform, or with tags, fused parts or gaps): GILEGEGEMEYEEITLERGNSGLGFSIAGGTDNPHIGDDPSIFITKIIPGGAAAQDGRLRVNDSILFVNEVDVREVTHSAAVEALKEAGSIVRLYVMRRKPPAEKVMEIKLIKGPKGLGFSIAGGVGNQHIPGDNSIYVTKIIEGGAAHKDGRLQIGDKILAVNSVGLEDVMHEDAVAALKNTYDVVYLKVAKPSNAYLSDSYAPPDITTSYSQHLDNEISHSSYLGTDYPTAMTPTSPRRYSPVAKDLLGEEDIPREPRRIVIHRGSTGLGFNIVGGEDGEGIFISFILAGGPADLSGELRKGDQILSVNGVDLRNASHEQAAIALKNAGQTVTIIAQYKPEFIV
The assay can be described thus: A assay.

Assay [10] deals with T7, GST-NeDLG PDZ domains 1-2 fusion protein. Kind of assay: G assay.

Ends that are not written are not given here. * marks the point of attachment. Biotin = O=C1N[C@H]2[C@H](CS[C@H]2CCCCC(=O)*)N1

T5 sequence (Q14CM0 other isoform, or with tags, fused parts or gaps): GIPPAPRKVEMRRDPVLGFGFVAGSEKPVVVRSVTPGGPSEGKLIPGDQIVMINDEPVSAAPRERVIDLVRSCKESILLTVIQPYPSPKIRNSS

With Biotin-TIYENLAPVTTFGKTIA [CD148 peptide AA55L (ending KTIA)], the binding result in [1], in assay [2], in [3], in assay [4], in assay [5] and in assay [6] was “no binding” throughout. Also, the binding result in assay [7] and in assay [8] was “no binding” throughout.
For Biotin-QATSRNGHSARQHVVADTEL [CD34 C-terminal peptide AA7L], the binding result in assay [9] is listed as “binds”; in assay [10] it was “binds”; in [1] it was “no binding”; in [2], “no binding”; in [3], “no binding”; in assay [4], “no binding”. The binding result in assay [5], in assay [6] and in assay [8] was “no binding” each time.
